From the supplement of paper PMC9170038 come the findings set out here.

In this data set the test system is MS2 coat protein. Kind of data set: apparent KD of MS2 coat protein; designed switch direction (-1 OFF switch, 1 ON switch): 1; higher = weaker reporter binding. In outline:
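SNAP-549-labelled MS2 coat protein was titrated, doubling from 0.7 or 1.5 nM to 3 µM, over designed RNA switches transcribed on Illumina chips by stalled E. coli RNA polymerase. Runs were done without input, with 200 uM small-molecule ligand, or with an oligonucleotide input. Apparent KD is the per-design median over clusters of curve-fitted normalised fluorescence.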

[1] abbreviates: input ligand: microRNA oligo, concentration not stated.

Consider “GCGAGCGUACUUGCUACAUGAGGAUCACCCAUGUUUACUGGACAGGAUAUGGUACCGUUUCGGUACCAGAAGGGUUCAUCAUGU [JL SSNG3 3.69] (Eterna round: R96, puzzle: Same State NG 3)”, for which the “apparent KD of MS2 coat protein” value reads like this: (input ligand: FMN 200 uM) 278 nM; under setting [1], 248 nM; (input ligand: none) 597 nM.
Taken in the same sequence, the figures for “GCGGAACAUGAGGAUCACCCAUGUGGAGGGUGUAAAGGAUAUUAUAGAGAGAAGGUAGGGUAAGAAGGUUGCUGGG [JR_SS1_Sub090] (Eterna round: R96, puzzle: Same State 1)” were 899 nM, 582 nM and 994 nM.
In the case of “GCGGAACAUGAGGAUCACCCAUGUGGAGGGUGUAAAGGAUAUUAUAGAGAGAAGGUAGGGUAAGAAGGUUGCUGGG [JR_SS1_Sub090] (puzzle: Same State 1)”, the “apparent KD of MS2 coat protein” value (Eterna round: R95, input ligand: FMN 200 uM) was 624 nM; the “apparent KD of MS2 coat protein” value (Eterna round: R95, input ligand: microRNA oligo, concentration not stated) was 320 nM; the “apparent KD of MS2 coat protein” value (Eterna round: R95, input ligand: none) came out at 592 nM.
For the sequence “GCGGAGACGUCAGGAUAUCCAUGGAAGACACAUGAGGAUCACCCAUGUGGGAGGGAAACCAGGAGGGAGAAGGGACGGAAACGC [ssng2 v2 d] (Eterna round: R96, puzzle: Same State NG 2)”, the “apparent KD of MS2 coat protein” value (input ligand: FMN 200 uM) amounted to 10 nM, the “apparent KD of MS2 coat protein” value under setting [1] is 9.63 nM and the “apparent KD of MS2 coat protein” value (input ligand: none) was determined as 14.1 nM.
Turning to “GCGGAGAGGUAAGGAUAUCCAUGGCAUAGACAUGAGGAUCACCCAUGUAGGAGACGAAUUAGGAGGGAGAAGGUACCGGGACGC [AK SSNG2-V2-19.1] (Eterna round: R96, puzzle: Same State NG 2)”, the “apparent KD of MS2 coat protein” value runs as follows: (input ligand: FMN 200 uM) 120 nM; under setting [1], 81.2 nM; (input ligand: none) 179 nM.
For “GCGUGAGAGAUAGGAUAUCGUGUACCUACAUGUGACAUGAGGAUCACCCAUGUGGUAAGUAUGAGCGAGAAGGAUCCGAUAUGU [salish99_SSNG2_r04_1003] (Eterna round: R96, puzzle: Same State NG 2)” the same measures were 28.2 nM, 54.7 nM and 63.5 nM.
For “GCUACCAAAGAAGCCAACAUGAGGAUCACCCAUGUAUGUUGGCAGGAUAUCGAUUGCAAAGCGAUCGAGAAGGGCUAAGGUAGC [Mat - Same State NG 3 - JL Mod - D88] (Eterna round: R96, puzzle: Same State NG 3)” the same measures were 147 nM, 214 nM and 204 nM.
For “GCUACCAAAUAAGCCAACAUGAGGAUCACCCAUGUAUGUUGGUAGGAUAUCGUAUGCAAAGCAUACGAGAAGGGCUAAGGUAGC [Mat - Same State NG 3 - JL Mod - D80] (Eterna round: R96, puzzle: Same State NG 3)” the same measures were 57.1 nM, 40.4 nM and 52.5 nM.
As for “GCUACCAAUAAAGCCAACAUGAGGAUCACCCAUGUAUGUUGGUAGGAUAUCGUUUGCAAAGCAAACGAGAAGGGCUAAGGUAGC [Mat - Same State NG 3 - JL Mod - D76] (Eterna round: R96, puzzle: Same State NG 3)”, the “apparent KD of MS2 coat protein” value runs as follows: (input ligand: FMN 200 uM) 39.1 nM; under setting [1], 28.2 nM; (input ligand: none) 43.9 nM.
For “GCUACCAUUGAAGCCAACAUGAGGAUCACCCAUGUAUGUUGGUAGGAUAUCGUUUGCUUUGCAAACGAGAAGGGCUAAGGUAGC [JL SSNG3 1.27] (Eterna round: R96, puzzle: Same State NG 3)” the same measures were 72.2 nM, 57.4 nM and 77.1 nM.
Taken in the same sequence, the figures for “GCUAGGAAAGAAGCCAACAUGAGGAUCACCCAUGUAUGUUGGUAGGAUAUCGUUUGCAAAGCAAACGAGAAGGGCUAACCUAGC [Mat - Same State NG 3 - JL Mod - D73] (Eterna round: R96, puzzle: Same State NG 3)” were 202 nM, 203 nM and 184 nM.
Taken in the same sequence, the figures for “GCUAGGAAUAAAGCCAACAUGAGGAUCACCCAUGUAUGUUGGUAGGAUAUCGUUUGCAAAGCAAACGAGAAGGGCUAACCUAGC [Mat - Same State NG 3 - JL Mod - D68] (Eterna round: R96, puzzle: Same State NG 3)” were 85.8 nM, 62.7 nM and 71.1 nM.
For “GCUAGGAUAUGACGAGGAUCACCCGUUAGAAGGAGCGAAGGCUAGGAUAUGACGAGGAUCACCCGUUAGAAGGAGCUGUACUCU [pwkr ssNG3 DX 2xF5 +2xFMN.10] (Eterna round: R96, puzzle: Same State NG 3)”, the “apparent KD of MS2 coat protein” value (input ligand: FMN 200 uM) worked out at 188 nM, the “apparent KD of MS2 coat protein” value under setting [1] is 64.9 nM and the “apparent KD of MS2 coat protein” value (input ligand: none) was 80.3 nM.
Taken in the same sequence, the figures for “GCUCGAUGAGCGUUUUACAUGAGGAUCACCCAUGUUCGUGGGCAGGAUAUUUACGUGCGGUGUGUAGAGAAGGGCCCAUCGAGC [SameState NG3 #69] (Eterna round: R96, puzzle: Same State NG 3)” were 87.1 nM, 247 nM and 529 nM.
For “GCUCGAUGAGCUGUUUACAUGAGGAUCACCCAUGUAAAUGGGCAGGAUAUUUACGUGCUUUGUGUAGAGAAGGGCCCAUCGAGC [SameState NG3 #76] (Eterna round: R96, puzzle: Same State NG 3)” the same measures were 32.4 nM, 103 nM and 235 nM.
For the sequence “GCUCGCACGAUGACCGACAUGAGGAUCACCCAUGUGUGUCGGUAGGAUAUCUAUAUUAAGGAUUUAGAGAAGGGCCCAGCGAGC [SameState NG3 #20] (Eterna round: R96, puzzle: Same State NG 3)”, the “apparent KD of MS2 coat protein” value runs as follows: (input ligand: FMN 200 uM) 68.3 nM; under setting [1], 68.5 nM; (input ligand: none) 69.3 nM.
Take “GCUCGUGGUAUUGUCUACAUGAGGAUCACCCAUGUGGGUGCGGAGGAUAUCUACGUGUCUCAUGUAGAGAAGGUCGUCACGAGC [SameState NG3 #100] (Eterna round: R96, puzzle: Same State NG 3)”: the “apparent KD of MS2 coat protein” value (input ligand: FMN 200 uM) was 119 nM, the “apparent KD of MS2 coat protein” value under setting [1] is 119 nM and the “apparent KD of MS2 coat protein” value (input ligand: none) was determined as 102 nM.
As to “GCUCUGGCGGUAGGAUAUCUAGGAUAUGGGAAAGACUAAGUCUGUAGGUCACCUAACCCAGAAGGAGAGAAGGACCCUGUAAGG [pwkr ssNG2 2FMN + F9.23] (Eterna round: R96, puzzle: Same State NG 2)”, the “apparent KD of MS2 coat protein” value (input ligand: FMN 200 uM) stood at 21 nM, the “apparent KD of MS2 coat protein” value under setting [1] was 17.2 nM and the “apparent KD of MS2 coat protein” value (input ligand: none) stood at 18.6 nM.
Consider “GCUGCAAUAAACGCCUACAUGAGGAUCACCCAUGUAUGUAGGCAGGAUAUCGUAUGCAAAGCAUACGAGAAGGGCCGUAGUAGC [Mat - Same State NG 3 - JL Mod - D36] (Eterna round: R96, puzzle: Same State NG 3)”, for which the “apparent KD of MS2 coat protein” value is, setting by setting: (input ligand: FMN 200 uM) 26.4 nM; under setting [1], 44.4 nM; (input ligand: none) 56.6 nM.
